The values that follow come from patent EP4806514A2 (Lepu Biopharma Co., Ltd., dated 2025).

Assay in all cases: ELISA, antigen coated at 1 ug/mL
In general terms: An ELISA detects its analyte on a solid surface through an enzyme-linked reagent.

In assay [1] the target is T1, human CDH10-his protein (Acro bio, Cat. No. CA0-H52H5) (human, UniProt Q9Y6N8 55-613).
T1 construct: Bought; also called human CDH10 protein
T1 sequence (looked up): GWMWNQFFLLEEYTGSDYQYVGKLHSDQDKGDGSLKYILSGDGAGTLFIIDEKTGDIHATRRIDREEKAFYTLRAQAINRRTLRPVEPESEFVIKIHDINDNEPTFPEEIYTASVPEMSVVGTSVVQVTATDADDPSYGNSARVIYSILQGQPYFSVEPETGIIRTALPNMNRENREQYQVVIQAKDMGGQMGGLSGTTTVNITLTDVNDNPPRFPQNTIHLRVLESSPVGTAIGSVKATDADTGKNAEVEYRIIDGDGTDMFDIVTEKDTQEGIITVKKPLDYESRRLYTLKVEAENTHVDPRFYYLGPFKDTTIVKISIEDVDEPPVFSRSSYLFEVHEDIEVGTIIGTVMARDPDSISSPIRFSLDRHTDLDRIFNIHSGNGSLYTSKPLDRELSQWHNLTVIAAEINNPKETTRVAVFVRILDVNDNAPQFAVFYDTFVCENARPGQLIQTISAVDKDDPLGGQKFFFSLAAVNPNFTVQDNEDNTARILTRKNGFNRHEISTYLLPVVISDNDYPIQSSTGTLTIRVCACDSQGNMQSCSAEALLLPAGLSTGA

For assay [2], the target named is T2, human CDH3-his protein (Kactus, Cat. No. CDH-HM103) (human, UniProt P22223 108-654, limits assumed).
T2 construct: Bought; also called human CDH3 protein
T2 sequence (P22223 108-654 limits assumed): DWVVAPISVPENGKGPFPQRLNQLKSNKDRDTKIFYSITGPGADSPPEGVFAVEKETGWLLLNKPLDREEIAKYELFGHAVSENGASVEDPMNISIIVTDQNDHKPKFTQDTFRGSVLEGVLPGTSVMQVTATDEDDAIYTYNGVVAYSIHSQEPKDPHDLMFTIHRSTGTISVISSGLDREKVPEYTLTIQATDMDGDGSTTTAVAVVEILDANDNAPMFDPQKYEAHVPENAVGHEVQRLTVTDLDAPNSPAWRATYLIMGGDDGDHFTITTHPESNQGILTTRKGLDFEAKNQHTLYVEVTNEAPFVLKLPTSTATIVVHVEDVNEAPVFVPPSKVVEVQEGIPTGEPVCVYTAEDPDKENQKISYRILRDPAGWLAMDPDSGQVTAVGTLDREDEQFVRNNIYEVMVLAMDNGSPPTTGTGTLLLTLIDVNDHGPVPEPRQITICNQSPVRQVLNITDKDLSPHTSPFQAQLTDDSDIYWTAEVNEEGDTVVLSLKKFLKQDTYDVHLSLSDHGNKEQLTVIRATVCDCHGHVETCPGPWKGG

Assay [3] deals with T3, rat CDH17-his (Sino bio, Cat. No. 80283-R08H) (rat, UniProt P55281 22-786).
T3 construct: Bought; also called rat CDH17 protein
T3 sequence (looked up): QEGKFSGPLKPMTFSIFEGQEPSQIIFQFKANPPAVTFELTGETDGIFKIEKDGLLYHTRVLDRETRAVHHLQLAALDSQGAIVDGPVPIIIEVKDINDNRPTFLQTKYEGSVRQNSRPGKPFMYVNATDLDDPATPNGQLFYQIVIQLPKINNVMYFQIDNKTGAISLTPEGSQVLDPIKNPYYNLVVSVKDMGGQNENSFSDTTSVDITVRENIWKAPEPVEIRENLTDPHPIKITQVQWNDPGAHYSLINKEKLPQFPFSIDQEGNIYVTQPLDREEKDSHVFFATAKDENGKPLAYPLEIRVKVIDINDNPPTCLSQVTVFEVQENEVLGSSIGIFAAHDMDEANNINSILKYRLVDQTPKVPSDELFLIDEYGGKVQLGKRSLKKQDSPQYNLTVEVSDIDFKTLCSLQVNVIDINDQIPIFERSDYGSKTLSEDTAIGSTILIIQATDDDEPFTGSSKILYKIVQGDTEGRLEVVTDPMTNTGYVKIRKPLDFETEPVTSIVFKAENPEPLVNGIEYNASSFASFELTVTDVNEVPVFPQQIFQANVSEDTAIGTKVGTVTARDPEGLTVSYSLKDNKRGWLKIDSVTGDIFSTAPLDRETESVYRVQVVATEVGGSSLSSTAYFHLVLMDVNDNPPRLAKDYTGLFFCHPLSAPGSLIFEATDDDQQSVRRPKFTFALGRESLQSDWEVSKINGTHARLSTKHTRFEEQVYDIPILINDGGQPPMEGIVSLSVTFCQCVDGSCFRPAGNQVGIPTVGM

For assay [4], the target named is T4, human CDH9-his (Acro bio, Cat. No. CA9-H52H6) (human, UniProt Q9ULB4 54-615).
T4 construct: Bought; also called human CDH9 protein
T4 sequence (looked up): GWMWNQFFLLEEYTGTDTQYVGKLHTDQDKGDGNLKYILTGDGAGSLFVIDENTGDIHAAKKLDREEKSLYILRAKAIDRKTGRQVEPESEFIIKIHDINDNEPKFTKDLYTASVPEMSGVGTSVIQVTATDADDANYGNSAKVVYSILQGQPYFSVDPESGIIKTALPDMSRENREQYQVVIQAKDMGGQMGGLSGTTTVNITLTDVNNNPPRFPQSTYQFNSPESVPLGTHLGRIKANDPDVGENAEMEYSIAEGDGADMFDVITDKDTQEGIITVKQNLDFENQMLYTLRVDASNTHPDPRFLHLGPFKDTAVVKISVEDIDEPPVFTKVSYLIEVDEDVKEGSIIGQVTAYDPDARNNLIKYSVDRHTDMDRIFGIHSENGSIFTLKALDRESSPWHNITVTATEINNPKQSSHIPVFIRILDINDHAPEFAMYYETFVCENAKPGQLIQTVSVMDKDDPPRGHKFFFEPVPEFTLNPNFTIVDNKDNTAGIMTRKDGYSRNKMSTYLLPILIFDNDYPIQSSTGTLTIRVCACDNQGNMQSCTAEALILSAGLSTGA

Assay [5] concerns the target T5, human CDH16 protein (hCDH16-his, Novoprotein, Cat. No. CJ16) (human, UniProt O75309 19-786).
T5 construct: Bought; also called human CDH16-his
T5 sequence (looked up): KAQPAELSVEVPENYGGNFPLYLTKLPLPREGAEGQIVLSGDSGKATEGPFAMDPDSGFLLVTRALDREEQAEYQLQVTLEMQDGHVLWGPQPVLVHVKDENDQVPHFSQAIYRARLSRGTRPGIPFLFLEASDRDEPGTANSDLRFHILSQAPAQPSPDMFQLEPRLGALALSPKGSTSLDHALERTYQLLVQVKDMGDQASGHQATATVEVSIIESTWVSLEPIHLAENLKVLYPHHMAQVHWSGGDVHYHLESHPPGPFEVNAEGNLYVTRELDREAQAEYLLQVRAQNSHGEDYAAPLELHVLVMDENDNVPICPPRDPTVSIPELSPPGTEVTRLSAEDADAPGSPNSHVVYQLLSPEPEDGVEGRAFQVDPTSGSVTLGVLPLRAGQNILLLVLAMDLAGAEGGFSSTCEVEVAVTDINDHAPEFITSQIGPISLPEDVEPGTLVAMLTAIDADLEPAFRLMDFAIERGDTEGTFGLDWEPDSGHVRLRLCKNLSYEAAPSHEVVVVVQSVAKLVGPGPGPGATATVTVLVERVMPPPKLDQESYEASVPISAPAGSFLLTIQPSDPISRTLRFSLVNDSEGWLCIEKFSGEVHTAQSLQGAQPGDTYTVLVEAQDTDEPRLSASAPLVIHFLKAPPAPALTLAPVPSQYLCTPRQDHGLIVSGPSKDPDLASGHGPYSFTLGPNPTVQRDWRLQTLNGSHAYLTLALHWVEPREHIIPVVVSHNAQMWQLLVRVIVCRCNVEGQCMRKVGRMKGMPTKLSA

B1: 29H8D3-z12 (antibody, V domains shown)
VH: QVQLVQSGAEVKKPGASVKVSCKASGYTFTDHTIHWMRQRPGQGLEWIGYIYPRDGYTKYNEKFKDRATLTADTSTSTAYMELRSLRSDDTAVYYCARFYYGYWYFDVWGQGTTVTVSS
VL: DIVMTQSPLSLPVTPGEPASISCRSSKSLLRSNGNTYLYWFLQKPGQSPQVLIYRMSNLASGVPDRFSGSGSGTDFTLKISRVEAEDVGVYYCMQHLEYPFTFGQGTKLEIK
notes: Humanized, human IgG1 constant region; also called 29H8D3-z12 mAb
Turning to B1, the binding result in assay [1], in assay [2], in assay [3], in assay [4] and in assay [5] was “no binding (tested: titrated from 50 nM)” each time.
